Results from publication PMC4574351, “Tubulin cofactors and Arl2 are cage-like chaperones that regulate the soluble αβ-tubulin pool for microtubule dynamics” (eLife, 2015).

Key:
[1] = biological target: TBC-DEG:αβ-tubulin complex (S. cerevisiae | porcine) (UniProt P40987); assay: SEC-MALS; WTC-03S5 column; purified TBC-DEG (subunits co-expressed and co-purified), αβ-tubulin, TBCC and their complexes; ternary complex with GDP·ALFx (wild type) or GTP (Q73L)
[2] = biological target: TBC-DEG:αβ-tubulin complex (S. cerevisiae | porcine) (UniProt P40987)
[3] = biological target: TBC-DEG:αβ-tubulin complex (S. cerevisiae | porcine) (UniProt P40987); remark: listed apart in the source
[4] = biological target: T1, Tubulin cofactor D (TBCD), S. cerevisiae Cin1p (S. cerevisiae), P40987; assay: SEC-MALS; WTC-03S5 column; purified TBC-DEG (subunits co-expressed and co-purified), αβ-tubulin, TBCC and their complexes; ternary complex with GDP·ALFx (wild type) or GTP (Q73L); settings: remark: other sources report otherwise
T1 chain: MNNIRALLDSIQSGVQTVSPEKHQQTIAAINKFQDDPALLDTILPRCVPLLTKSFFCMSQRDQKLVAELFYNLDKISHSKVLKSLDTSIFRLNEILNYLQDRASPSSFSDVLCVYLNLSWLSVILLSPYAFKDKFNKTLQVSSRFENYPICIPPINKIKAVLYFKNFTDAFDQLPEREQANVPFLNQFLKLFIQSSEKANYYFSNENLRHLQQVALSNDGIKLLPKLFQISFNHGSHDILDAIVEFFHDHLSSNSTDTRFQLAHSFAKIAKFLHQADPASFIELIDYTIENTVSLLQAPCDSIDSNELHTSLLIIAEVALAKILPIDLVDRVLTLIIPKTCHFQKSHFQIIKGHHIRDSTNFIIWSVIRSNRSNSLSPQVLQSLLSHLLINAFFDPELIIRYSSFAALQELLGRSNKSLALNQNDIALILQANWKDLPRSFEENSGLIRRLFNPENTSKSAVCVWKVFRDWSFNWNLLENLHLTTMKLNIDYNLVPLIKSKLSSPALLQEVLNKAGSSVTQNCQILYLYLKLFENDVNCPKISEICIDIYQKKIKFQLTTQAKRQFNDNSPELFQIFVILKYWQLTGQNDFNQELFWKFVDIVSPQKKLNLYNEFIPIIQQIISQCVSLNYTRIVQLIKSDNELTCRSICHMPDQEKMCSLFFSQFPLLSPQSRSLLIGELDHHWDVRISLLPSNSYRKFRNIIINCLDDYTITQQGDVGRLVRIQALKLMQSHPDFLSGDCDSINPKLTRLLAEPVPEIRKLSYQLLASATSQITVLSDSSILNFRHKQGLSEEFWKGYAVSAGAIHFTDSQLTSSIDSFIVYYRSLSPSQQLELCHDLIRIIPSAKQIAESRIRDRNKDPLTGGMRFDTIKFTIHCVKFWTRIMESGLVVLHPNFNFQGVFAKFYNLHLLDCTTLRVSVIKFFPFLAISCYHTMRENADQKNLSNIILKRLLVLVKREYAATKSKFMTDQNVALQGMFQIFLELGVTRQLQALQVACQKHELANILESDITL

B1: Tubulin cofactor C (TBCC), S. cerevisiae Cin2p (natural protein)
chain: MDFTAKIKELERELSETSDYKTLQKKTISLRSELNTLSHSLTSYEKEHFSNDIENVLKSINAKLSESKGKKRLFSFKQKNSSSAVHKNVERTELANAPAYTTTLKKHYVLEKGDSAFENLEFCTVTSTTDYSGNSALSGSLCFRNITKCVINLQRIFFQTGSIFITDCTDSIIFLRSPSDKDFQIRLRDLKNCKILIEKLSPSIDCKQVVIIENCHKCIFNASTRDHLIIQDFSNPFQSEETEDNSAFAFEDFDICNKDTMQLFRAYL
stoichiometry N [1]: 1
steady-state GTP hydrolysis kcat, equimolar αβ-tubulin and TBCC added to TBC-DEG (number as in the text) [2]: 0.0308 s⁻¹
steady-state GTP hydrolysis kcat (malachite green), 1 μM TBC-DEG:1 μM TBCC:1 μM αβ-tub [3]: 31300 M⁻¹ s⁻¹

B2: Tubulin cofactor E (TBCE), S. cerevisiae Pac2p, P39937 1-518 (natural protein)
chain: MTYEIGDRLKIGGYFCTIKFIGVIKPWPSVKAYGVEWDDHSRGKHSGTIDDIHYFDVQIPNSGSFLKESKIKSPGVRRITFYEALSEKYGGSSNNINDLSIGNKRVEGLGFDELNARNKNYKKLRKIALRDSDVAILFQNQDELNRVIQNCVNVKDLDLSLNLFTNINSLCEFIEPLKNLESLNISQNKLLSGWDNLKEYDLSHIKTLRLSSCGLSYKHIGKLLKSFRTLKMLDLSYNNLTSAGIQNFENEIPCTLEELNISGNNLISFPLFPKNLTLKGLNVSNNQISRAPSIAIYSVESLDITDNKFKERSLIDDLNKTFPSLKNIHLSGNEFNYNGNYINVEEQATFYEVLARFDRVMVLNGSICDVKTRREAEMFFVSKVMNNELSYDTNLPRWSSLIKSYEIDMSKLSFNNERETRQSLVLKIKIRAGKKPSSDLDYWVLPSFTVRYVKSVICRKLNFDILNVKLFHENSEGMINEIKYNFRPISDFNVVNGDIIHVSSPVNNKSIQKVNSPS
stoichiometry N [4]: 1

B3: TBCC C-terminal β-helix domain (residues 100-267) (domain or fragment)
chain: YTTTLKKHYVLEKGDSAFENLEFCTVTSTTDYSGNSALSGSLCFRNITKCVINLQRIFFQTGSIFITDCTDSIIFLRSPSDKDFQIRLRDLKNCKILIEKLSPSIDCKQVVIIENCHKCIFNASTRDHLIIQDFSNPFQSEETEDNSAFAFEDFDICNKDTMQLFRAY
steady-state GTP hydrolysis kcat, 1 μM TBC-DEG:1 μM TBCC-Cterm:1 μM αβ-tub [3]: 18800 M⁻¹ s⁻¹
